Data as given in the supplement of paper PMC11246515.
± gives the standard deviation of the averaged measurements.

Experiment: total protein half-life in vivo (active degradation + dilution); higher = more stable protein
[1] = E. coli NCM3722 delta-clpP delta-lon delta-hslV, growth: N-lim chemostat, doubling time 6 h
[2] = E. coli NCM3722 delta-clpP, growth: N-lim chemostat, doubling time 6 h
[3] = E. coli NCM3722 delta-lon, growth: N-lim chemostat, doubling time 6 h
[4] = E. coli NCM3722 delta-smpB, growth: N-lim chemostat, doubling time 6 h
[5] = wild type E. coli NCM3722, growth: C-lim chemostat, doubling time 3 h
[6] = wild type E. coli NCM3722, growth: C-lim chemostat, doubling time 6 h
[7] = wild type E. coli NCM3722, growth: C-lim chemostat, doubling time 12 h
[8] = wild type E. coli NCM3722, growth: N-lim chemostat, doubling time 6 h
[9] = wild type E. coli NCM3722, growth: N-lim chemostat, doubling time 12 h
[10] = wild type E. coli NCM3722, growth: P-lim chemostat, doubling time 6 h
[11] = wild type E. coli NCM3722, growth: P-lim chemostat, doubling time 12 h
[12] = E. coli NCM3722 delta-hslV, growth: N-lim chemostat, doubling time 6 h

Row | Sequence | total protein half-life in vivo [1] [h] | total protein half-life in vivo [2] [h] | total protein half-life in vivo [3] [h] | total protein half-life in vivo [4] [h] | total protein half-life in vivo [5] [h] | total protein half-life in vivo [6] [h] | total protein half-life in vivo [7] [h] | total protein half-life in vivo [8] [h] | total protein half-life in vivo [9] [h] | total protein half-life in vivo [10] [h] | total protein half-life in vivo [11] [h] | total protein half-life in vivo [12] [h]
1 | MESNNGEAKIQKVKNWSPVWIFPIVTALIGAWVLFYHYSHQGPEVTLITANAEGIEGGKTTIKSRSVDVGVVESATLADDLTHVEIKARLNSGMEKLLHKDTVFWVVKPQIGREGISGLGTLLSGVYIELQPGAKGSKMDKYDLLDSPPLAPPDAKGIRVILDSKKAGQLSPGDPVLFRGYRVGSVETSTFDTQKRNISYQLFINAPYDRLVTNNVRFWKDSGIAVDLTSAGMRVEMGSLTTLLSGGVSFDVPEGLDLGQPVAPKTAFVLYDDQKSIQDSLYTDHIDYLMFFKDSVRGLQPGAPVEFRGIRLGTVSKVPFFAPNMRQTFNDDYRIPVLIRIEPERLKMQLGENADVVEHLGELLKRGLRGSLKTGNLVTGALYVDLDFYPNTPAITGIREFNGYQIIPTVSGGLAQIQQRLMEALDKINKLPLNPMIEQATSTLSESQRTMKNLQTTLDSMNKILASQSMQQLPTDMQSTLRELNRSMQGFQPGSAAYNKMVADMQRLDQVLRELQPVLKTLNEKSNALVFEAKDKKDPEPKRAKQ | 6.4 ± 0.49 | 7 ± 0.91 | 6.43 ± 0.21 | 5.75 ± 0.35 | 3.341 ± 0.027 | 7.13 ± 0.87 | 12.8 ± 1.1 | 5.99 ± 0.28 | 12.9 ± 0.71 | 6.06 ± 0.058 |  | 
2 | METFNSLFMVSPLLLGVLFFVAMLAGFIDSIAGGGGLLTIPALMAAGMSPANALATNKLQACGGSISATIYFIRRKVVSLSDQKLNIAMTFVGSMSGALLVQYVQADVLRQILPILVICIGLYFLLMPKLGEEDRQRRMYGLPFALIAGGCVGFYDGFFGPAAGSFYALAFVTLCGFNLAKATAHAKLLNATSNIGGLLLFILGGKVIWATGFVMLVGQFLGARMGSRLVLSKGQKLIRPMIVIVSAVMSAKLLYDSHGQEILHWLGMN [P0AD30] | 6.4 |  | 6.29 ± 0.21 | 6.13 |  | 5.18 ± 0.11 |  | 4.37 |  |  | 10 ± 3.5 | 
3 | METKDLIVIGGGINGAGIAADAAGRGLSVLMLEAQDLACATSSASSKLIHGGLRYLEHYEFRLVSEALAEREVLLKMAPHIAFPMRFRLPHRPHLRPAWMIRIGLFMYDHLGKRTSLPGSTGLRFGANSVLKPEIKRGFEYSDCWVDDARLVLANAQMVVRKGGEVLTRTRATSARRENGLWIVEAEDIDTGKKYSWQARGLVNATGPWVKQFFDDGMHLPSPYGIRLIKGSHIVVPRVHTQKQAYILQNEDKRIVFVIPWMDEFSIIGTTDVEYKGDPKAVKIEESEINYLLNVYNTHFKKQLSRDDIVWTYSGVRPLCDDESDSPQAITRDYTLDIHDENGKAPLLSVFGGKLTTYRKLAEHALEKLTPYYQGIGPAWTKESVLPGGAIEGDRDDYAARLRRRYPFLTESLARHYARTYGSNSELLLGNAGTVSDLGEDFGHEFYEAELKYLVDHEWVRRADDALWRRTKQGMWLNADQQSRVSQWLVEYTQQRLSLAS | 6.86 ± 0.86 | 5.96 ± 0.25 | 2.76 ± 0.13 | 2.4 ± 0.17 | 2.1 ± 0.094 | 3.51 ± 0.53 | 4.92 ± 0.65 | 2.83 ± 0.088 | 4.179 ± 0.033 | 2.92 ± 0.053 | 5.02 ± 0.13 | 2.71 ± 0.75
4 | METKNLTIGERIRYRRKNLKHTQRSLAKALKISHVSVSQWERGDSEPTGKNLFALSKVLQCSPTWILFGDEDKQPTPPVEKPVALSPKELELLELFNALPESEQDTQLAEMRARVKNFNKLFEELLKARQRTNKR | 6.79 ± 1 | 5.32 ± 0.38 | 6.27 ± 0.067 | 5.86 ± 0.56 | 3.21 ± 0.043 | 5.25 ± 0.77 | 6.96 ± 1.7 | 4.971 ± 0.028 | 10.2 ± 2.7 | 5.33 ± 1 | 10.7 ± 0.66 | 5.9 ± 0.15
5 | METNIVEVENFVQQSEERRGSAFTQEVKRYLERYPNTQYVDVLLTDLNGCFRGKRIPVSSLKKLEKGCYFPASVFAMDILGNVVEEAGLGQEMGEPDRTCVPVLGSLTPSAADPEFIGQMLLTMVDEDGAPFDVEPRNVLNRLWQQLRQRGLFPVVAVELEFYLLDRQRDAEGYLQPPCAPGTDDRNTQSQVYSVDNLNHFADVLNDIDELAQLQLIPADGAVAEASPGQFEINLYHTDNVLEACDDALALKRLVRLMAEKHKMHATFMAKPYEEHAGSGMHIHISMQNNRGENVLSDAEGEDSPLLKKMLAGMIDLMPSSMALLAPNVNSYRRFQPGMYVPTQASWGHNNRTVALRIPCGDRHNHRVEYRVAGADANPYLVMAAIFAGILHGLDNELPLQEEVEGNGLEQEGLPFPIRQSDALGEFIENDHLRRYLGERFCHVYHACKNDELLQFERLITETEIEWMLKNA | 3.73 ± 1.2 | 2.89 ± 0.19 |  | 0.507 | 0.748 | 1.47 | 0.976 |  |  |  |  | 0.535 ± 0.066
6 | METVAYADFARLEMRVGKIVEVKRHENADKLYIVQVDVGQKTLQTVTSLVPYYSEEELMGKTVVVLCNLQKAKMRGETSECMLLCAETDDGSESVLLTPERMMPAGVRVV | 5.14 ± 0.11 | 5.33 |  |  | 2.97 ± 0.48 | 4.74 ± 0.58 | 8.53 ± 0.87 |  |  |  |  | 
7 | METYAVFGNPIAHSKSPFIHQQFAQQLNIEHPYGRVLAPINDFINTLNAFFSAGGKGANVTVPFKEEAFARADELTERAALAGAVNTLMRLEDGRLLGDNTDGVGLLSDLERLSFIRPGLRILLIGAGGASRGVLLPLLSLDCAVTITNRTVSRAEELAKLFAHTGSIQALSMDELEGHEFDLIINATSSGISGDIPAIPSSLIHPGIYCYDMFYQKGKTPFLAWCEQRGSKRNADGLGMLVAQAAHAFLLWHGVLPDVEPVIKQLQEELSA | 4 ± 0.39 | 4.39 ± 0.89 | 6.18 ± 2.5 | 3.9 ± 0.14 | 2.4 ± 0.59 | 5.428 ± 0.014 | 8.94 ± 2.3 | 4.16 ± 0.36 | 6.95 ± 0.015 | 6.01 ± 0.18 | 11.7 ± 1.5 | 4.03 ± 0.27
